Measurements from IntAct's records for PubMed 20723757.

B1: Monopolin complex subunit pcs1 (Schizosaccharomyces pombe (strain ATCC 38366 / 972)), O13684 (parent)
chain: MRKNNMQTSKDSELKEQAKGKSSKLIHKLPKQRTRISQGQMHSTQDFVNNEDQDAYSVRENENELHINNSGMSELNKKLQLPNVELSTLSHTQEQEFNELNKLIRKINELQEFYLLEDLAKPVTNAGADADDTIVKDLKKELENEKKANHSLKNELLKTREQIKNYSKINILIKELFGLEVADCIEDEDGYRFNCKNTGRRGTLEYQLLLDDQNFTFTPRLNVQTDEELMKHLPDYLLEEIIFTKEQGKLFSARLMKALQD
partner: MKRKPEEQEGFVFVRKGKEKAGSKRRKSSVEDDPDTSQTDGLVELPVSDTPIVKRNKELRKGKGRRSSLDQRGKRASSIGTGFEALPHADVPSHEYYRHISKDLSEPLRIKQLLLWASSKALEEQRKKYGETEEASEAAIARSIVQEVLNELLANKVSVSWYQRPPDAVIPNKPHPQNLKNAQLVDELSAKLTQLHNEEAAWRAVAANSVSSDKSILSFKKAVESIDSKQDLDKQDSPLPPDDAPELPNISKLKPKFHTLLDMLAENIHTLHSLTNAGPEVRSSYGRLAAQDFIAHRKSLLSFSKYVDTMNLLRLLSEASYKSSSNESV
B2: Monopolin complex subunit CSM1 (Saccharomyces cerevisiae), P25651 (parent)
chain: MDPLTVYKNSVKQQIDSADLLVANLVNENFVLSEKLDTKATEIKQLQKQIDSLNAQVKELKTQTSQQAENSEVIKDLYEYLCNVRVHKSYEDDSGLWFDISQGTHSGGSSDDYSIMDYKLGFVKGQAQVTEVIYAPVLKQRSTEELYSLQSKLPEYLFETLSFPLSSLNQFYNKIAKSLNKKREKKDETE
B3: Monopolin complex subunit pcs1 (Schizosaccharomyces pombe (strain ATCC 38366 / 972)), O13684 (parent)
chain: B1 chain
partner: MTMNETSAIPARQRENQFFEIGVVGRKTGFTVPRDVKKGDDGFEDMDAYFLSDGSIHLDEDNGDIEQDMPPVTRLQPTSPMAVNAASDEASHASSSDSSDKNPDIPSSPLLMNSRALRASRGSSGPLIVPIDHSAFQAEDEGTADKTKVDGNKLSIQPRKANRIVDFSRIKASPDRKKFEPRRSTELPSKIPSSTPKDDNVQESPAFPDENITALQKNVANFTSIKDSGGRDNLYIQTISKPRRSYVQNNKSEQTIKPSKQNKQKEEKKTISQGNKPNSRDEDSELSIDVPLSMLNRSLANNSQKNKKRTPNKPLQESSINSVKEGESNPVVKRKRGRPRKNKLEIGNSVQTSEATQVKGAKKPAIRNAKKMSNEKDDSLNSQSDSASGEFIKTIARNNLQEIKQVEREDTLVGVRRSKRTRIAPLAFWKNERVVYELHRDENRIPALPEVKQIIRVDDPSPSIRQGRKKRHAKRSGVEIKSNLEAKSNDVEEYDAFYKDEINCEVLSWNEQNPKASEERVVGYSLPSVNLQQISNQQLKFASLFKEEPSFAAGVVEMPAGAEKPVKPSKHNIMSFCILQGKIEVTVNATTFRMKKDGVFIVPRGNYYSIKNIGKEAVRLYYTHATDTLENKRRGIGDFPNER
B4: Monopolin complex subunit CSM1 (Saccharomyces cerevisiae), P25651 (parent)
chain: B2 chain
partner: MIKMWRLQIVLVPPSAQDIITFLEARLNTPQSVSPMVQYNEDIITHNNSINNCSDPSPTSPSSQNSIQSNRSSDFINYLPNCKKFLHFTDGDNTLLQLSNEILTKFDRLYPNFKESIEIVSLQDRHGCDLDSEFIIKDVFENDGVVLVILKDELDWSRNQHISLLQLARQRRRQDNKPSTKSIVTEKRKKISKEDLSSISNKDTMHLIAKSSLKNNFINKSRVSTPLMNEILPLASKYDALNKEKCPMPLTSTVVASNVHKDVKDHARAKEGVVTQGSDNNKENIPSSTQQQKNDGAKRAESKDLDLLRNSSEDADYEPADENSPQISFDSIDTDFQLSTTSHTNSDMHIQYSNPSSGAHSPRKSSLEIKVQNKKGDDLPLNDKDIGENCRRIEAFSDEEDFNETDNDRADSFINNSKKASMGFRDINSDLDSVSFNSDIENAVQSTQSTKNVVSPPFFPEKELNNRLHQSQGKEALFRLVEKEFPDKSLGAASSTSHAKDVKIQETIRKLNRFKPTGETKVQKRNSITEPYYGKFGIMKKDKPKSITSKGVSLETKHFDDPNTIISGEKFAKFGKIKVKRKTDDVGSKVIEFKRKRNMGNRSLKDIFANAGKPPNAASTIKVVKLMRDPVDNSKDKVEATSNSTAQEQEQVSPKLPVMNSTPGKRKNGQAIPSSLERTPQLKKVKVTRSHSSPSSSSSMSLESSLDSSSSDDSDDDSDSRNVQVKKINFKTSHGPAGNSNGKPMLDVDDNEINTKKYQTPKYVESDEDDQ
B5: Monopolin complex subunit CSM1 (Saccharomyces cerevisiae), P25651 (parent)
chain: B2 chain
partner: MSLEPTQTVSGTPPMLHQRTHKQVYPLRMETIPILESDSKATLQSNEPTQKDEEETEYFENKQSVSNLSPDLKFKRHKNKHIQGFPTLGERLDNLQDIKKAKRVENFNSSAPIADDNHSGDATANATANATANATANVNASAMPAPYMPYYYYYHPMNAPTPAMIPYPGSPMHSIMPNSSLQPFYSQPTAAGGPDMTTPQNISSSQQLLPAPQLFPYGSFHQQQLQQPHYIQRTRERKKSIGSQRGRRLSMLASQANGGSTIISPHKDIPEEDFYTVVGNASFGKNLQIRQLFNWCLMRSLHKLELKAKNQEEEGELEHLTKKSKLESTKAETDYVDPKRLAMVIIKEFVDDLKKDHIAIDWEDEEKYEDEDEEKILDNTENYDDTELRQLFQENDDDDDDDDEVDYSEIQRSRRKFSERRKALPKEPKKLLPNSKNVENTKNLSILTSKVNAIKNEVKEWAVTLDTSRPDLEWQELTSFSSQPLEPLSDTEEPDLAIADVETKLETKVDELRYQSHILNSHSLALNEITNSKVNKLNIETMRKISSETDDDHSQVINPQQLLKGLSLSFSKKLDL

Variants of: B1
Conditions: with mis13_schpo mis13, Q9UUB5

Effect of a mutation on the interaction, decreasing interaction:
Y236A
Y236K
Y236E
I241D
I241K
I241A

Variants of: B2
Conditions: with cenpc_yeast MIF2, P35201
cenpc_yeast MIF2, P35201, sequence (P35201 whole entry): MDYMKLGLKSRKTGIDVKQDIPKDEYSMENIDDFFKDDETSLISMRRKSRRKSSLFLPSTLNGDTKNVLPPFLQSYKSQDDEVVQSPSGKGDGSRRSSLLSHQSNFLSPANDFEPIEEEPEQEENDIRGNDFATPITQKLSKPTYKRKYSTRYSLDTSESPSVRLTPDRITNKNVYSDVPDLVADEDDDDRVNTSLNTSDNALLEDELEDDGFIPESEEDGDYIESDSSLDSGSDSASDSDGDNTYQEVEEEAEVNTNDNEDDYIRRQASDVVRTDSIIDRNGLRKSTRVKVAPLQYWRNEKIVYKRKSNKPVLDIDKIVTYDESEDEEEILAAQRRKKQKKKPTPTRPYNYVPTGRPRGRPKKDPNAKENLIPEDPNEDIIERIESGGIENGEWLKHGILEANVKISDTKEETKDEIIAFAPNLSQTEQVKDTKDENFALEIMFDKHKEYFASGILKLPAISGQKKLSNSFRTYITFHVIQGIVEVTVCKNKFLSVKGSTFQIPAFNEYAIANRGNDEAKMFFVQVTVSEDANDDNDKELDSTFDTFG

Effect of a mutation on the interaction, decreasing interaction:
Y156E
L161K
L161D

Variants of: B3
Conditions: with cenpc_schpo cnp3, Q9USR9

Effect of a mutation on the interaction, decreasing interaction:
I241A
Y236A

Variants of: B4
Conditions: with tof2_yeast TOF2, Q02208

Effect of a mutation on the interaction, decreasing interaction:
L161K
L161D
Y156A
Y156E
K174E

Variants of: B5
Conditions: with dsn1_yeast DSN1, P40568

Effect of a mutation on the interaction, decreasing interaction:
L161K
L161D
Y156E
